B1: HDV Ribozyme (parent)
chain: GGCCGGCAUGGUCCCAGCCUCCUCGCUGGCGCCGGCUGGGCAACAUUCCGAGGGGACCGUCCCCUCGGUAAUGGCGAAUGGGACCCA

Variants of B1 are the subject of the data set. Kind of data set: self-cleavage, relative activity (ratio to wild type); higher = more cleavage; co-transcriptional.
With G5A U9C, the self-cleavage is 0.0639.

For the variant G5U G11U, the self-cleavage turned out to be 0.156.

For the variant G5U G11A, the self-cleavage stood at 0.18.

For G5A U79G, the self-cleavage turned out to be 0.0923.

In the case of G5A G74C, the self-cleavage amounted to 0.0923.

With G5A U47A, the self-cleavage worked out at 0.208.

With G5U G25C, the self-cleavage stood at 0.

Turning to G5U G25U, the self-cleavage was 0.

On to G5A G11U, for which the self-cleavage turned out to be 0.0665.

G5U C14U: the self-cleavage came to 0.612.

G5U C33G: the self-cleavage came out at 0.65.

Consider G5C A56C, for which the self-cleavage was 0.

Take G5C G81C: the self-cleavage was found to be 0.

Turning to G5C G81U, the self-cleavage was 0.131.

Regarding G5C U37C, the self-cleavage worked out at 0.161.

With G5U C30A, the self-cleavage was found to be 0.0462.

For G5A G82C, the self-cleavage was determined as 0.

Regarding G5U, the self-cleavage turned out to be 0.469.

Take G5C: the self-cleavage turned out to be 0.213.

For the variant G5C C30U, the self-cleavage was found to be 0.128.

Consider G5A C19G, for which the self-cleavage was 0.0898.

For the variant G5A G6A, the self-cleavage was 0.

For G5U A45U, the self-cleavage is 0.277.

For the variant G5U A16C, the self-cleavage is 0.383.

With G5U A16U, the self-cleavage came to 0.0978.

On to G5C A87C, for which the self-cleavage worked out at 0.268.

With G5C A87U, the self-cleavage is 0.175.

With G5C G29U, the self-cleavage was 0.

On to G5A G68C, for which the self-cleavage was found to be 0.17.

For G5A G68A, the self-cleavage came out at 0.164.

In the case of G5C C61U, the self-cleavage was found to be 0.

On to G5C C61G, for which the self-cleavage came to 0.287.

For the variant G5C U9G, the self-cleavage came out at 0.111.

With G5C U9C, the self-cleavage worked out at 0.312.

In the case of G5U C58U, the self-cleavage amounted to 0.277.

Take G5U C58G: the self-cleavage was determined as 0.262.

Regarding G5U A43C, the self-cleavage came out at 0.

As to G5C A43U, the self-cleavage amounted to 0.0489.

Turning to G5C C58U, the self-cleavage worked out at 0.293.

For the variant G5C G40U, the self-cleavage was determined as 0.104.

Turning to G5C G11A, the self-cleavage came to 0.0449.

For G5A C49U, the self-cleavage is 0.18.

On to G5A C49A, for which the self-cleavage came out at 0.302.

Turning to G5A G25C, the self-cleavage was 0.0923.

For the variant G5A G25U, the self-cleavage was determined as 0.0339.

As for G5C C64A, the self-cleavage was found to be 0.178.

In the case of G5A G53U, the self-cleavage worked out at 0.309.

Take G5C G74C: the self-cleavage came out at 0.0978.

As for G5C G74U, the self-cleavage amounted to 0.161.

Take G5C C84A: the self-cleavage worked out at 0.142.

G5A C22A: the self-cleavage is 0.0426.

For the variant G5A G55U, the self-cleavage amounted to 0.122.

For G5A G10A, the self-cleavage was 0.203.

On to G5A G10C, for which the self-cleavage amounted to 0.308.

With G5C A8C, the self-cleavage was found to be 0.

Take G5A C84G: the self-cleavage amounted to 0.0875.

For the variant G5A C18U, the self-cleavage was 0.

Turning to G5A C18G, the self-cleavage came to 0.

In the case of G5A C66A, the self-cleavage was determined as 0.173.

On to G5C G31U, for which the self-cleavage came out at 0.0405.

Consider G5C C15G, for which the self-cleavage was 0.249.

As for G5U G28C, the self-cleavage stood at 0.0554.

Turning to G5U G6A, the self-cleavage was 0.208.

Turning to G5C G52C, the self-cleavage came out at 0.095.

G5C G52A: the self-cleavage was found to be 0.252.

Regarding G5C A83U, the self-cleavage turned out to be 0.

Consider G5C A16G, for which the self-cleavage worked out at 0.145.

Regarding G5C A16U, the self-cleavage was 0.237.

On to G5A C44A, for which the self-cleavage came out at 0.

On to G5A C44U, for which the self-cleavage was 0.0627.

In the case of G5C C13G, the self-cleavage came out at 0.262.

Take G5U G10U: the self-cleavage worked out at 0.181.

For G5U G10C, the self-cleavage was 0.462.

As to G5U C75U, the self-cleavage was found to be 0.0573.

Take G5C A78U: the self-cleavage was determined as 0.0755.

G5C G6U: the self-cleavage came to 0.185.

With G5U G17U, the self-cleavage turned out to be 0.18.

Turning to G5A C63G, the self-cleavage amounted to 0.0755.

Take G5A C63A: the self-cleavage was 0.277.

Regarding G5C G50U, the self-cleavage stood at 0.0361.

On to G5C C62A, for which the self-cleavage worked out at 0.0665.

Turning to G5C C62U, the self-cleavage came out at 0.222.

Turning to G5A G38U, the self-cleavage turned out to be 0.0804.

Regarding G5A G38A, the self-cleavage was determined as 0.147.

Regarding G5A U20G, the self-cleavage was found to be 0.185.

Turning to G5A U20A, the self-cleavage came out at 0.0437.

For the variant G5A C41U, the self-cleavage was 0.277.

In the case of G5C G76A, the self-cleavage stood at 0.415.

In the case of G5U A77U, the self-cleavage was 0.158.

Take G5U A77C: the self-cleavage worked out at 0.192.

On to G5A G59U, for which the self-cleavage is 0.222.

As to G5A G59C, the self-cleavage came to 0.219.

With G5A G54A, the self-cleavage turned out to be 0.177.

In the case of G5U A83G, the self-cleavage turned out to be 0.0573.

For G5A G81A, the self-cleavage was found to be 0.0978.

As to G5A G67A, the self-cleavage is 0.125.

On to G5A G67U, for which the self-cleavage worked out at 0.17.

Turning to G5U A56U, the self-cleavage was determined as 0.431.

As for G5U A56C, the self-cleavage was 0.831.

Take G5C G80C: the self-cleavage came out at 0.17.

For the variant G5A G50A, the self-cleavage is 0.192.

In the case of G5C G59U, the self-cleavage came out at 0.128.

Take G5U A51C: the self-cleavage amounted to 0.277.

For the variant G5C U60C, the self-cleavage came to 0.

Take G5C U60A: the self-cleavage came out at 0.166.

As for G5U A42C, the self-cleavage came out at 0.178.

For G5C C26U, the self-cleavage worked out at 0.489.

Consider G5U C18A, for which the self-cleavage turned out to be 0.0875.

G5A U65C: the self-cleavage turned out to be 0.308.

On to G5U C48A, for which the self-cleavage came to 0.712.

As to G5A G40C, the self-cleavage came to 0.136.

In the case of G5A C85A, the self-cleavage was 0.113.

On to G5C U72C, for which the self-cleavage amounted to 0.123.

As for G5C U20C, the self-cleavage turned out to be 0.0875.

In the case of G5C C44A, the self-cleavage stood at 0.

As for G5C G35A, the self-cleavage worked out at 0.113.

For the variant G5C G35U, the self-cleavage was 0.0308.

With G5U G29U, the self-cleavage amounted to 0.0594.

G5C G53A: the self-cleavage came out at 0.162.

As to G5U C57A, the self-cleavage came to 0.383.

On to G5U A71U, for which the self-cleavage was determined as 0.185.

In the case of G5U A71C, the self-cleavage amounted to 0.

In the case of G5A U60A, the self-cleavage is 0.125.

Regarding G5A U60G, the self-cleavage was determined as 0.

Consider G5A G35U, for which the self-cleavage amounted to 0.0396.

In the case of G5U C7G, the self-cleavage was 0.104.

On to G5U C7U, for which the self-cleavage came out at 0.

With G5A C15U, the self-cleavage came out at 0.0475.

Turning to G5A C15G, the self-cleavage was determined as 0.151.

As for G5U C61A, the self-cleavage was found to be 0.399.

Turning to G5U C61G, the self-cleavage was 0.262.

With G5C U27G, the self-cleavage amounted to 0.302.

Take G5U C84G: the self-cleavage amounted to 0.262.

Take G5U C66G: the self-cleavage was determined as 0.554.

In the case of G5C C57U, the self-cleavage stood at 0.185.

On to G5A G80A, for which the self-cleavage was found to be 0.143.

Turning to G5A G80U, the self-cleavage is 0.0971.

Regarding G5A C24A, the self-cleavage was 0.0978.

In the case of G5A G17C, the self-cleavage came out at 0.0594.

Take G5U C49A: the self-cleavage was 0.415.

For the variant G5U C49U, the self-cleavage was 0.791.

Regarding G5A C14G, the self-cleavage was found to be 0.0639.

Take G5U C86G: the self-cleavage was found to be 0.26.

As for G5A C48A, the self-cleavage was found to be 0.0437.

G5A C48G: the self-cleavage is 0.101.

Consider G5C G54A, for which the self-cleavage worked out at 0.0831.

As to G5C C48U, the self-cleavage turned out to be 0.308.

As to G5A G52C, the self-cleavage was 0.253.

As for G5A G52A, the self-cleavage was 0.227.

As to G5A U37C, the self-cleavage was determined as 0.764.

As for G5C U46C, the self-cleavage stood at 0.26.

Consider G5C U46A, for which the self-cleavage is 0.0639.

For G5C U46G, the self-cleavage stood at 0.0573.

As to G5A G31U, the self-cleavage is 0.0332.

As to G5A U23G, the self-cleavage is 0.0923.

G5U C22U: the self-cleavage stood at 0.158.

As to G5C C49G, the self-cleavage came out at 0.192.

G5C G82C: the self-cleavage worked out at 0.

As to G5C C32G, the self-cleavage worked out at 0.

As for G5C C32U, the self-cleavage was 0.0573.

As to G5C U12A, the self-cleavage was found to be 0.0791.

As to G5C U12G, the self-cleavage turned out to be 0.0831.

Regarding G5A G28A, the self-cleavage came to 0.0378.

Regarding G5A G28C, the self-cleavage was determined as 0.104.

In the case of G5A C21U, the self-cleavage was found to be 0.163.

In the case of G5A C21G, the self-cleavage worked out at 0.0811.

Turning to G5U C36A, the self-cleavage was determined as 0.208.

These data come from the RNAGym collection of RNA variant scans (doi:10.7554/elife.80360).
